Our source for the IC50 values is patent publication US20220306747A1 (CHINA MEDICAL UNIVERSITY HOSPITAL, published 2022).

In assay [1] the target is HLA-G recombinant protein (CAT #: TP305216, Origene) (human) (UniProt P17693). In words: competitive ELISA, HLA-G coated, competitor biotinylated KIR2DL4.
Assay [2] has the same target. In words: competitive ELISA, HLA-G coated, competitor biotinylated LILRB1.
Assay [3] deals with T1, HLA-G recombinant protein (CAT #: TP305216, Origene) (human, UniProt P17693 25-338, limits assumed).
T1 construct: Bought recombinant protein coated on the plate; also called human leukocyte antigen-G
In words: competitive ELISA, HLA-G coated, competitor biotinylated KIR2DL4; blocking normalized to 87G. The method, then:
(§1) The procedure is as follows. HLA-G recombinant protein (CAT #: TP305216, Origene) (0.2 mg/ml, 100 μl each well) was coated on 96-well plate overnight at 4° C. Next day, the coating buffer was discarded, and blocked with 3% skin milk for 2 hr at room temperature, followed by washing 5 times with PBST (0.05% Tween in PBS). […] After 9 times of washing, each well was incubated with 100 μl PBST containing streptavidin-HRP conjugates (ThermoFisher, Cat No: N100, dilution titer: […]) for 2 hr at room temperature. After 9 times of washing with PBST, 50 μl of TMB substrate for detecting HRP activity (ThermoFisher, Cat No:N301) was added. The reactions were stopped by adding 50 μl stop solution (ThermoFisher, Cat No:N600), and it was measured by ELISA reader using 450 nm channel.

Assay [4] deals with T1, HLA-G recombinant protein (CAT #: …). In words: competitive ELISA, HLA-G coated, competitor biotinylated LILRB1; blocking normalized to 87G. The protocol:
as §1

On to “commercial anti-HLA-G monoclonal antibody (87G)”, for which the IC50 worked out at 0.0414 µg/mL in assay [1] and 0.101 µg/mL in assay [2].

B1: anti-HLA-G nanobody clone #20 (VHH)
VHH: EVQLVESGGGSVRPGETLRLSCTASGFTVDDSDMSWYRQAPGDECELVSSITSGGGKYYSHPVKGRFTIFRDKGKNTMYLQMNSLVPEDTGVYYCVAPAWTGYGCTWGQGTQVTVSS
notes: also called anti-tumor antigen nanobody; anti-HLA-G nanobody (NB)
Regarding B1, the IC50 in assay [3] is 0.814 µg/mL; in assay [4], 0.000174 µg/mL.

B2: anti-HLA-G nanobody clone #9 (VHH)
VHH: QVQLVESGGGSVQAGGSLRLSCEASGRTYSSNCMGWFRQAPGKERENVAAIYTGGDGITYADSVKGRFTISQDKLKNMLYLQMDSLKPEDTAMYYCAADPNRRRMGVGGSCLRANFGPGGQGTQVTVSS
notes: as for B1
As to B2, the IC50 in assay [3] was 0.00614 µg/mL; in assay [4], 0.000825 µg/mL.
